Data from paper PMC5845987.

Columns and labels:
[1] = biological target: CCAAT/enhancer binding protein β (C/EBPβ) (UniProt P17676)
[2] = biological target: CCAAT/enhancer binding protein β (C/EBPβ) (UniProt P17676); remark: listed apart in the source

UniProt P17676, sequence (P17676 whole entry): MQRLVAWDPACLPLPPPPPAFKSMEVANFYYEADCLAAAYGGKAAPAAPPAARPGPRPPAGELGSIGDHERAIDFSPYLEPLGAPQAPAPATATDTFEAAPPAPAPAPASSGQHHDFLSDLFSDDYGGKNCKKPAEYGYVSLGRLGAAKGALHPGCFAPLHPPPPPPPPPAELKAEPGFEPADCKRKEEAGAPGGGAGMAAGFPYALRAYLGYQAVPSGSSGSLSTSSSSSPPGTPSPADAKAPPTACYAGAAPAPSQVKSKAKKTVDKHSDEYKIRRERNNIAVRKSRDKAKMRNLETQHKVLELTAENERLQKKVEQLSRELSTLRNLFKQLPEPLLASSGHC

B1: HPV8 E2 protein (human papillomavirus type 8 transcription factor E2) (natural protein)
chain: MENLSERFNVLQDQLMNIYEAAEQTLEAQIAHWLLLRKEAVLLYFARQKGITRIGYQPVPPLAVSEAKAKQAIGIMLQLQSLQKSEFADEPWTLVDTSIETYKNAPENHFKKGATPVEVIYDKQPDNANVYTMWKHIYYTDADDKWHKTTSGVNQTGIYYMQGSFRHYYVVFADDARRYSATGEWEVKINKDTVFAPVTSSTPPGSPPGQADTDTAAKTPTTSADSTSRQQRSPAKQPQQTETKGRRYGRRPSSRTRPQKEQRRSRSRHRTRSRSRSLSRVRAVGSTTVSRSRSSSLTKAVRPRSRSRSRGRATATSRRRAGRGSPRRRRSTSRSPSTNTFKRSQRGGGRRGRGRGSRGRRERSSSTSPTPTKRSRGESSRLRGVSPSEVGRSVQSVSAKHTGRLGRLLDEAIDPPVILVRGEANTLKCFRNRARVRYRGLFKYFSTTWSWVAGDSTERLGRSRMLILFTSAGQRKDFDETVKYPKGVDTSYGNLDSL
murine S100A8 promoter luciferase reporter activity in RTS3b cells co-transfected with 0.005 μg C/EBPβ and 0.005, 0.04 or 0.2 μg HPV8 E2 expression vector (control set at 1) [1]: 7 fold
endogenous S100A8 mRNA (qRT-PCR) in RTS3b cells co-transfected with HPV8 E2 and C/EBPβ: enhancement of C/EBPβ-mediated induction [2]: > 25 fold
endogenous S100A8 protein level (Western blot quantification) in RTS3b cells co-transfected with HPV8 E2 and C/EBPβ [2]: 90 fold
endogenous S100A9 mRNA (qRT-PCR) in RTS3b cells co-transfected with HPV8 E2 and C/EBPβ: enhancement of C/EBPβ-mediated induction [2]: 6 fold
endogenous S100A9 protein level (Western blot quantification) in RTS3b cells co-transfected with HPV8 E2 and C/EBPβ [2]: 31 fold
